Assay results as given in doi:10.1101/2021.01.29.428852 (bioRxiv, 2021).

Target: LCMV clone 13 nucleocapsid protein (NP), purified recombinant (Lymphocytic choriomeningitis virus, …, UniProt P09992, strain)
Assay: ELISA

B1: most expanded antibody variant of the NP-specific, second most expanded IgG clone (antibody, V domains shown)
VH: EVQLQQSGPELVKPGASVKMSCKASGYTFTDYNMHWVKQSHGKSLEWIGYINPNNGGTSYNQKFKGKATLTVNKSSSTAYMELRSLTSEDSAVYYCAREGGYWYFDVWGTGTTVTVSS
VL: DIVMTQSHKFMSTSVGDRVSITCKASQDVSTAVAWYQQKPGQSPKLLIYWASTRHTGVPDRFTGSGSGTDYTLTISSVQAEDLALYYCQQHYSTPFTFGSGTKLEIK
binding result: binds
